According to the nanobody polyreactivity screen of Harvey et al. (2022):

Assay: yeast display, Sf9 membrane polyspecificity reagent, FACS + sequencing; frameworks hold sequencing errors
Outline: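 Sorting gates, low and high (top ~1%), were placed on anti-HA fluorescence to track expression and on streptavidin fluorescence to track reagent binding. A clone's polyreactivity label is taken from the gate it came out of. The reagent was 10% biotinylated, detergent-solubilized Sf9 membrane, applied for 1 hour at 4 °C to galactose-induced yeast display cells.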

Sequence | polyreactivity (PSR sort gate)
QVQLVESGGGLVQAGGSLRLSCAASGYTFINYAMGWYRQAPGKERELVAAITSTGSRTYYADSVKGRFTITRDNAKNTVYLQMNSLKPEDPAVYYCAAQVDRKYRWFNSWGQGTQVNVSS | high polyreactivity
QVQLVESGGGLVQAGGSLRLSCAASGYTFKAYAMGWYRQAPGKERELVAGISRSGGSTYYADSVKGRFTISRDNAKNTVYLQMNSLKPEDTAVYYCAADSFSWETVVPSVFEFDYWGQGTQVTVSS | low polyreactivity
QVQLVESGGGLVQAGGSLRLSCAASGYTFKAYAMGWYRQAPGKERELVGGISRSGGSTYYADSVKGRFTISRDNAKNTVYLQMNSLKPEDTAVYYCAADSFSWETVVPSVFEFDYWGQGTQGTVSS | low polyreactivity
QVQLVESGGGLVQAGGSLRLSCAASGYTFKTYAMGWYRQAPGKERELVAAIRTSGGSTYYADSVKGRFTISRDNAKNTVYLQMNSLKPEDTAVYYCAAAFNYYGSLYDYWGQGTQVTVSS | high polyreactivity
QVQLVESGGGLVQAGGSLRLSCAASGYTFLAYAMGWYRQAPGKERELVAAISRSGVSTYYADSVKGRFTISRDNAKNTVYLQMNILKPEDTAFYYCAKGVRYQQYHIMYYWGQGTQVTVSS | high polyreactivity
QVQLVESGGGLVQAGGSLRLSCAASGYTFLVYTKGWYRQAPGKERELVATISWSGTSTDYADSVKGRFTISRDNAKNTVYLQMNSLKPEDTAVYYCNAKYPRAYLYGYKLFDSWGQGTQVTVSS | high polyreactivity
QVQLVESGGGLVQAGGSLRLSCAASGYTFNWYAMGWYRQAPGKERELVAAISWRSGRTYYADSVKGRFTISRDNAKNTVYLQMNSLKPEDTAVYYCAVTTTSGAPGGSYYYWGQGTQVTVSS | high polyreactivity
QVQLVESGGGLVQAGGSLRLSCAASGYTFNYYAMGWYRQAPGKERELVAAISASSDSTYYADSVKGRFTISRDNAKNTVYLQMNSLNPEDTAVYYCAAVSGRYRIYRYDYWGQGTQVTVSS | low polyreactivity
QVQLVESGGGLVQAGGSLRLSCAASGYTFPDYAMGWYRQAPGKERELVADITSAGNTYYADSVKGRFTISRDNAKNTVYLQMNSLKPEDTAVYYCNKDDLWENGISYSSPYRLDHWGQGTQVTVSS | low polyreactivity
QVQLVESGGGLVQAGGSLRLSCAASGYTFPIYAMGWYRQAPGKERELVATISSGGRTNYADSVKGRFTISRDNAKNTVYLQMKSLKPEDTAVSYCNARRLGWHALYLYDYWGQGTQVTVSS | high polyreactivity
QVQLVESGGGLVQAGGSLRLSCAASGYTFPIYAMGWYRQAPGTERELVAGISKNGGSTYYADSVKGRFTISRDNAKNTVYLQMNSLKPVDTAVYYCNASAWGRPYYLGSYFVYPGYEYWGQGTEVTVSS | low polyreactivity
QVQLVESGGGLVQAGGSLRLSCAASGYTFPLYAMGLYRQAPGKEWELVADINIGGASTYYADSVKGRFTISRDHAKNTVYLQMNSLKPEDTAVYYCAKEYYDGYFPTFDYDYWGQGTQVTGSS | low polyreactivity
QVQLVESGGGLVQAGGSLRLSCAASGYTFPLYAMGWYRQAPGKERELVATISSSGSRTYYADSVKGRFTISRDNAKNTVYLQMNSLKPEDTAVYYCAARYRAYVKLTSYDWGQGTQVTVSS | high polyreactivity
QVQLVESGGGLVQAGGSLRLSCAASGYTFPQYAMGWYRQAPGKERELVAAITRRGGSTYYADSVKGRFTISRDNAKNTVYLQMNSLKPEDTAVYYCASDSYPYSLGGDYWGQGTQVTVSS | high polyreactivity
QVQLVESGGGLVQAGGSLRLSCAASGYTFPSNAMGWYRQAPGKERELVAAISSGGRTNYADSVKGRFTISRDNAKNTVYLQMNSLKPEDTGVYYCNADGGPCYPRAYDYWGQGTQVTVSS | low polyreactivity
QVQLVESGGGLVQAGGSLRLSCAASGYTFQGYAMGWYRQAPGKERELVAGISRSGGRTYYADSVKGRFTISRDNAKNTVYLQMNSLKPEDTAVYYCAASYQVRYDYWGQGTQVTVSS | high polyreactivity
QVQLVESGGGLVQAGGSLRLSCAASGYTFQKYGMGWYRQAPGNERELVAAITRSSGNTYYADSVKGRFTISRDNAKNTVYLQMNSLKPEDTAVDYCAAYYWGGVKYNYWGQGTQVTVSS | high polyreactivity
